In US20250042974A1, “LIPID MEDIATOR CHAPERONE AND USES THEREOF” (The Children's Medical Center Corporation, priority 2021, published 2025):
“Also recorded” adds a separate entry of the source.

B1: A1M: recombinant fusion protein of Apolipoprotein A1 and Apolipoprotein M with GGGGS linker and 6x His tag (SEQ ID NO: 23) (protein)
chain: MKAVVLAVALVFLTGSQAWHVWQQDEPQSQWDKVKDFANVYVDAVKDSGRDYVSQFESSSLGQQLNLNLLENWDTLGSTVSQLQERLGPLTRDFWDNLEKETDWVRQEMNKDLEEVKQKVQPYLDEFQKKWKEDVELYRQKVAPLGAELQESARQKLQELQGRLSPVAEEFRDRMRTHVDSLRTQLAPHSEQMRESLAQRLAELKSNPTLNEYHTRAKTHLKTLGEKARPALEDLRHSLMPMLETLKTKAQSVIDKASETLTAQTRTRPLGGGGSNQCPEHSQLTALGMDDTETPEPHLGLWYFIAGAASTTEELATFDPVDNIVFNMAAGSAPRQLQLRATIRTKSGVCVPRKWTYRLTEGKGNMELRTEGRPDMKTDLFSSSCPGGIMLKETGQGYQRFLLYNRSPHPPEKCVEEFQSLTSCLDFKAFLVTPRNQEACPLSSKHHHHHH
B2: ApoM-S1P: ApoM-bound S1P as named in FIG. 6 results; chaperone form not specified (protein, UniProt O95445 1-188, looked up)
Apolipoprotein M: MFHQIWAALLYFYGIILNSIYQCPEHSQLTTLGVDGKEFPEVHLGQWYFIAGAAPTKEELATFDPVDNIVFNMAAGSAPMQLHLRATIRMKDGLCVPRKWIYHLTEGSTDLRTEGRPDMKTELFSSSCPGGIMLNETGQGYQRFLLYNRSPHPPEKCVEEFKSLTSCLDSKAFLLTPRNQEACELSNN
modifications: bound S1P
notes: chaperone form not specified

How the values were obtained:
[1] = tested on: HUVEC; test: TEER analysis of endothelial barrier function; assay type: cell-based, human; conditions: HUVEC; S1P 10-300 nM, A1M 0.8-24 μg/ml; unloaded controls up to 24 μg/ml
Method: Transendothelial Electrical Resistance (TEER) was performed on HUVEC as described previously (Swendeman et al, 2017). Essentially, HUVECs were maintained in HUVEC Growth Medium (HGM; M199 medium supplemented with 10% FCS (Corning), 1:100 Pen-Strep (Sigma), 8 mM Glutamine (Sigma), Heparin (Sigma, 100 U, LMW) and Sheep Brain Extract prepared (REF). All cultures were maintained on Fibrobronectin (2 μg/ml) coated plates. For TEER analysis a 96 well ECIS system (96W10idf PET array, Applied BioPhysics) was employed. Wells were coated with Fibronectin (2 μg/ml) resuspended in saline for 30 minutes at room temp. HUVECs were harvested, resuspended in HGM at a cell density of 25-30×10^3 cells/well and allowed to adhere overnight. Prior to analysis, culture media was removed and replaced with M199 media supplemented with Pen-Strep/Glutamine and 1% FCS for 30 minutes. For stimulation studies, either Iloprost (Cayman Biochemicals) or Iloprost loaded onto ApoA1 or ApoA1-ApoM chaperones, or S1P prepared on ApoA1-ApoM or ApoM-Fc chaperones were added to cultures and TEER studies were performed from 3-24 hours.

[2] = tested on: NF-κB; test: TNFα-induced NF-κB luciferase reporter assay in HMEC; assay type: cell-based, human
Method: TNFα-dependent NF-κB signaling was determined by using an NFκB-Luciferase based reporter assay system (pGL4.32[luc2P/NF-κB-RE/Hygro]; Promega). A stable NFκB reporter cell line in human microvascular endothelial cells (HMEC-1; ATCC) was created. HMEC were maintained in 10% FCS/Pen-Strep MCDB media supplemented with 2 mM L-Glutamine (Sigma), EGF (2 ng/ml; R&D systems) and Hydrocortisone (1 ng/ml; Sigma). […] The 5×10^5 reporter cells were distributed to 12 well plates and allowed to adhere for 24 hours. Media was replaced with MCDB media supplemented with 1% FCS, L-Glutamine. […] Samples were extracted using cell lysis buffers (Promega), luciferin substrate was added and the plates were measured for […] at 470 nm for 8-15 minutes in a SpectraMax L 96-well plate reader (Molecular Devices).

[3] = tested on: ICAM-1; test: TNF-α-induced ICAM-1 expression in HUVEC (western blot); assay type: cell-based, human; conditions: 10 min pretreatment, TNFα 10 ng/ml 5 hours, 200 μg/ml
Method: HUVECs were plated as described above. After 24 hours cells were shifted to M199 media supplemented with 1% FCS, 8 mM Glutamine, 1× Pen-Strep. After 30 minutes, cells were pretreated for 10 minutes with media, ApoM-Fc-S1P (100 nM S1P), Iloprost (100 nM), ApoA1-ApoM (200 μg/ml), ApoA1-ApoM-Iloprost (200 ug/ml; 100 nM Iloprost) or ApoA1-ApoM-S1P (200 μg/ml 100 nM S1P) or in combinations and subsequently treated with TNF-α (10 ng/ml). After 5 hours, cells were lysed with cell lysis buffer (TBS-T; 20 mM Tris-pH8, 160 mM NaCl, 1% Triton, 1× protease inhibitor cocktail (Sigma)), collected and centrifuged at 20,000×g for 5 minutes at 4° C., extracts were analyzed by 10% SDS-PAGE, transferred to nitrocellulose membrane (Bio-Rad), blocked in 5% milk, and probed with antibodies to ICAM-1 (1:1000, sc-8439, Santa Cruz Biotech) and Actin (1:5000, sc-8432, Santa Cruz Biotech). Blots were developed with appropriate secondary antibodies linked to HRP and visualized by chemiluminescence (Immobilon Western, EMD Millipore) using a ChemiDoc Imaging (Biorad).

[4] = tested on: Neutrophils; test: fMLP-dependent neutrophil ROS generation; assay type: cell-based, mouse; conditions: ApoM-S1P 100 nM S1P, ApoA1-Iloprost 160 nM drug, area under the curve
Method: Peritoneal Neutrophils were isolated from C57Bl/6 mice after thioglycolate elicitation. Thioglycolate (2 ml of 2% v/v) resuspended in water was administered by intraperitoneal injection. After 4 hours, mice were euthanized and 5 ml of HBSS was injected intraperitoneally, the abdomen was messaged for 1 minute and the peritoneal fluid was removed. The resulting cells were pelleted, RBCs were lysed with ACK buffer, re-pelleted and resuspended in PBS-glucose. Cells were counted, 5×10^5 cells were dispersed into 96 well clear bottom plates containing luminol 100 mM and 10 U/ml of horseradish peroxidase and read for blank background. F-Met-Leu-Phe (fMLP; 10 μM) was added and plates were read on a SpectraMaxL1 (Molecular Devices, San Jose, CA) over 5 minutes as described previously. The area under the curve was calculated by using GraphPad Prism 7 (GraphPad Software, San Diego, CA).

Row | Molecule | enhancement of endothelial barrier function (TEER) [1] | inhibition of TNFα-induced NF-κB activity at higher doses ([2]; 100-400 μg/ml, bi-phasic dose-response) | inhibition of TNFα-induced NF-κB activity ([2]; low doses 25-50 μg/ml) [%] | inhibition of TNFα-induced ICAM1 expression [3] | inhibition of neutrophil ROS generation [4] [%]
1 | B1 | no functional barrier protection; also recorded: did not induce endothelial barrier enhancement | not as inhibitory | ~25 | inhibiting downstream inflammatory ICAM1 expression | 
2 | B2 |  |  |  |  | ~42
